Target: T1, Glu-plasminogen (Calbiochem), P00747
T1 chain: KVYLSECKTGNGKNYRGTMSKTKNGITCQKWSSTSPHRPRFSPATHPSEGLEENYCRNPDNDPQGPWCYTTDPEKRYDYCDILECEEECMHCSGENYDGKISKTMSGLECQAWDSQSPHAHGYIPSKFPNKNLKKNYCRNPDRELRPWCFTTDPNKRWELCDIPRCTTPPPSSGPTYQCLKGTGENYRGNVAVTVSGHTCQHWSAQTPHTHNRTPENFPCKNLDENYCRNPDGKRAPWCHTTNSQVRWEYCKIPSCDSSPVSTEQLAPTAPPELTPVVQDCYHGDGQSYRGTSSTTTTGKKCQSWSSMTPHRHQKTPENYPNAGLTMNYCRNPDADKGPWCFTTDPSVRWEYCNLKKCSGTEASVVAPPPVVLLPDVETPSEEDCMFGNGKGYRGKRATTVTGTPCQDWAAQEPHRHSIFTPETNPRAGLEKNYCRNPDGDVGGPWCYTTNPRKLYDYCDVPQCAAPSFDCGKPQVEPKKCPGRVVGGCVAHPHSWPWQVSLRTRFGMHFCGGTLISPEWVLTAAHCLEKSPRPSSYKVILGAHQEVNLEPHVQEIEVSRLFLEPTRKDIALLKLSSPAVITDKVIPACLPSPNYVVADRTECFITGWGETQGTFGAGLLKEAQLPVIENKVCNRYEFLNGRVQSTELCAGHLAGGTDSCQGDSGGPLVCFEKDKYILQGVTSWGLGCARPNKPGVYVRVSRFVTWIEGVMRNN

B1: tissue type plasminogen activator (t-PA, Calbiochem) (protein)
chain: SYQVICRDEKTQMIYQQHQSWLRPVLRSNRVEYCWCNSGRAQCHSVPVKSCSEPRCFNGGTCQQALYFSDFVCQCPEGFAGKCCEIDTRATCYEDQGISYRGTWSTAESGAECTNWNSSALAQKPYSGRRPDAIRLGLGNHNYCRNPDRDSKPWCYVFKAGKYSSEFCSTPACSEGNSDCYFGNGSAYRGTHSLTESGASCLPWNSMILIGKVYTAQNPSAQALGLGKHNYCRNPDGDAKPWCHVLKNRRLTWEYCDVPSCSTCGLRQYSQPQFRIKGGLFADIASHPWQAAIFAKHRRSPGERFLCGGILISSCWILSAAHCFQERFPPHHLTVILGRTYRVVPGEEEQKFEVEKYIVHKEFDDDTYDNDIALLQLKSDSSRCAQESSVVRTVCLPPADLQLPDWTECELSGYGKHEALSPFYSERLKEAHVRLYPSSRCTSQHLLNRTVTDNMLCAGDTRSGGPQANLHDACQGDSGGPLVCLNDGRMTLVGIISWGLGCGQKDVPGVYTKVTNYLDWIRDNMRP
B1 showed a Km of t-PA-mediated plasminogen conversion in the presence of S100A4 (EGTA) of 0.059 µM and a Km of t-PA-mediated plasminogen conversion, basal reaction (EGTA) of 0.429 µM.

From patent US20050277575
